Measurements reported in paper PMC12615485, “New dengue virus inhibitors targeting NS3-NS5 interaction identified by in silico screening” (Frontiers in Microbiology, 2025).

Target: 6His-NS5 RdRp(270-900) of DENV-2 NGC strain (DENV-2 NGC strain)
Assay: ELISA
Conditions: both partners purified

In the case of EGEWKEGEEVQVLAL [NS3(86-100) peptide of DENV-2], the IC50 is reported as > 200 µM.
